# Values quoted from earlier work, collected in PMC5457079.
# Target: insulin (Homo sapiens) (UniProt P01308)
substance,measurement,value
insulin (from UniProt P01308),Kd,10 µM
